Results from the supplement of paper PMC12042874.
± gives the uncertainty stated by the source.

Experiment: amyloid nucleation score (Sup35N fusion, yeast selection) (log enrichment); library NNK2; higher = more nucleation; inactive = no reads after selection
How it was run: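 Psi-negative yeast expressed Sup35N fused to peptides of 20 random codons. They were induced 24 hours with 100 μM copper sulfate, grown 7 days at 30°C without adenine and uracil, and their plasmid inserts from input and output were Illumina-sequenced. The nucleation score is the DiMSum log enrichment of output over input reads, centred on the mode score of non-aggregating sequences. Sequences with under 100 input reads were excluded.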

In order of rising amyloid nucleation score:
1. LSAVWLWVNFFQHMTNRC  -1.71 ± 0.76
2. YNTPIIPAWVFSFHQWPEAF  -1.6 ± 1.1
3. FWLVL  -1.47 ± 0.73
4. RIVMLGFVN  -1.44 ± 0.54
5. AFVNVVGLVYSF  -1.42 ± 0.45
6. YLKPLAFITSILHAMTRPWH  -1.28 ± 0.75
7. FEYYIDPRK  -1.27 ± 0.61
8. KNLVDWVYYPPMH  -1.23 ± 0.62
9. GHGFFLTTMSSGNNTDRNSG  -1.22 ± 1.1
10. CLWSSNSSSIWDIGRYFRR  -1.21 ± 0.31
11. YHKRSPIYSVLYDLDSFK  -1.04 ± 1.1
12. RCQTFLGKETPSFYRKIVKF  -1.02 ± 0.55
13. DCFFFKSWVSLGKIMLSTFS  -0.997 ± 1.1
14. AELLYMFWACNFSWSMPL  -0.986 ± 0.76
15. SICGEVYWWNLG  -0.978 ± 0.28
16. DTRFEVNAFTIGNRYATNGS  -0.869 ± 0.41
17. YQMADVPLNRMGHYPVYEGW  -0.845 ± 0.76
18. PPIRVYNLSSTYPMDMSSQR  -0.8 ± 0.27
19. MQISKQTFPHNWVVYRSDYG  -0.776 ± 1.1
20. SCIMLIVPMINSAYAVLLWR  -0.771 ± 0.62
21. VFGKGQWVDLIRRREDVYTN  -0.759 ± 1.1
22. CLSVCCEDFNRSLTHYASSL  -0.743 ± 0.76
23. GYAVRRYDLMNLFRSMWASC  -0.739 ± 0.79
24. FASSEVYTGVSYIIHVSVYS  -0.714 ± 1
25. KVISSVSEPLSKKEDYE  -0.706 ± 0.3
26. MLLIRGHILIPGADLTIIPE  -0.692 ± 0.56
27. AMNVDIN  -0.641 ± 0.24
28. SAYVVLIEFVLNKVVGTLLR  -0.634 ± 0.63
29. DGTAFMARPKETSIPDVSSS  -0.593 ± 0.33
30. DYFSNLIVDLTFLSGSFVFV  -0.578 ± 1.1
31. ANSMLVF  -0.573 ± 0.4
32. IVGCLGDGVRLL  -0.563 ± 0.29
33. VSMNDVLYLMCS  -0.556 ± 0.25
34. RVFKDTRRIG  -0.545 ± 1
35. SSSLLRSHRVGYVNLVVRED  -0.524 ± 0.55
36. KGGWYNNYGAVNKNGWCSDK  -0.501 ± 1.1
37. VQPVLCIVSCNRLNRQRAEM  -0.498 ± 1.1
38. KLCKVYVRRRSIICWGNCVP  -0.481 ± 1.1
39. RKCFDRRDYIPKIGQIRMSC  -0.48 ± 0.39
40. FSMLF  -0.462 ± 0.56
41. TASKILSGIASYDSRIIQPE  -0.447 ± 0.23
42. FWLLSTCGV  -0.408 ± 0.29
43. MLVNRFGGVA  -0.402 ± 0.38
44. CLRLFTQSGFE  -0.362 ± 0.38
45. AYVRNAIGTMFLLALSHRGD  -0.345 ± 0.48
46. FCYIDGLGYSRFNMHAEPSG  -0.326 ± 0.48
47. LGPCSVIGQMVMYDRYGLLD  -0.313 ± 0.76
48. MYLPMVDVIEVSYSVNLERG  -0.311 ± 0.32
49. NCPPFHRMYLTSIIGSLSDD  -0.306 ± 0.49
50. LDINIFM  -0.304 ± 1.1
51. FHCNPIS  -0.277 ± 1.1
52. WGCNSNELSCRLYVVNYSGW  -0.251 ± 0.56
53. PWPYIWSRCSQTDTVSCEHS  -0.212 ± 0.33
54. EWCQFIR  -0.199 ± 0.19
55. AMRWFGKYSRFWNGYIRNWI  -0.193 ± 0.76
56. WFMSIMSKYCRVSF  -0.149 ± 0.79
57. NMKSWGSVV  -0.145 ± 0.79
58. EYVVSLHVFRLHIKLKIFRV  -0.09 ± 0.65
59. AQGSRDSNRRVEASACY  -0.09 ± 0.63
60. QNKSIDSHAVGGIRVDDYRR  -0.088 ± 0.31
61. LQCRLIRVMYVMHCDVWVV  -0.087 ± 0.24
62. DSFIVYVR  -0.072 ± 0.63
63. SSLGA  -0.059 ± 0.5
64. PIFSSKLSGRGR  -0.059 ± 0.55
65. LIVSAALRYNKDLLWIS  -0.004 ± 0.39
66. LISKSGSFMNMLGTGDRAR  0.005 ± 1
67. VNDKFHFILF  0.019 ± 0.8
68. NNMINDGNSMV  0.026 ± 0.39
69. LFVVTVTIMCYLSKEYVGLP  0.039 ± 0.51
70. LKMCYFLRNKPTQMHVSGVY  0.04 ± 0.5
71. LTSGQEGG  0.047 ± 0.45
72. DYGEGLPNSMCCLVSFQ  0.057 ± 1.1
73. VMFILVYTLFP  0.068 ± 0.65
74. ARYLITTAQVPVLGPRSQHK  0.073 ± 0.41
75. SCSHYTVECKGAWGFCACGH  0.085 ± 0.36
76. GDTPGSLYCNLISEGAI  0.119 ± 0.76
77. VINSLMWKFTVIMRGVMNRI  0.12 ± 0.25
78. SSKFTHDYGGEDIVIDQDES  0.14 ± 0.53
79. CDYWYYIGRRNVEMEHRVTC  0.148 ± 1
80. GNPTESG  0.148 ± 0.29
81. LHLFIVGRKWSGDESAFLYA  0.154 ± 0.5
82. AASWTPSCNCPPWVFHGWLL  0.16 ± 0.8
83. SRGWTRMRSYVVSSDFILLK  0.178 ± 0.48
84. HIKDNQSSSV  0.196 ± 0.44
85. IPRGLFCLLYNVVKEYFVLR  0.198 ± 0.4
86. SIFFARLVVEKSMIQLG  0.21 ± 0.41
87. SQSKNDQ  0.257 ± 0.34
88. RHSHRARKVGEWGNLCLVEK  0.26 ± 0.21
89. RIKGSGGPNVLGWFRMVLCS  0.284 ± 1.1
90. GEHSGTHNFKCFVSIIRLSR  0.305 ± 1
91. RIKCRTLLGQFLMAVVIEMY  0.309 ± 0.31
92. KILALATRLKIFSSLVYIRS  0.338 ± 0.51
93. FCRSYCVLVYLWSPYVTGSK  0.349 ± 0.5
94. LARASKHCSEVLGDCLA  0.366 ± 0.8
95. PILLMSTVTRRLVRCNVAFK  0.391 ± 0.51
96. RLRQMCFKRNSVKLLLWNRF  0.409 ± 0.8
97. LIEVQGSFYIVSALIGYRCG  0.414 ± 0.21
98. VSDNGFFNRYNMTNCRIHGV  0.449 ± 0.57
99. WHWISAYCTFICRKVLKEMP  0.478 ± 0.4
100. FCELLIVAVLLQGDSLKPQS  0.485 ± 0.36
101. RGINDILRFKS  0.494 ± 0.44
102. RCKCNAIEVT  0.565 ± 0.2
103. LAFAILFPFGSLRDGST  0.585 ± 0.8
104. CVVRSSAKRFDCRKFGRASN  0.599 ± 0.8
105. QGKNAFAGLGYMSHKRRMWG  0.686 ± 0.39
106. LSLFVQMMSVGTILLYRMTL  0.715 ± 0.34
107. PAVFRHHPGKHVRHGSSTTT  0.73 ± 0.28
108. VITLRGAPYTEWLLRALLAS  0.734 ± 0.81
109. YLTISIAGVVLNLFVIACIV  0.757 ± 0.4
110. CFLGHGCILVGYLRDYRLLR  0.759 ± 0.67
111. LGNRVRMSWNW  0.807 ± 0.44
112. KERNRRAEAGSYNYVGVWVT  0.951 ± 0.81
113. NITMMGLVVTFVAISVRLSL  0.959 ± 0.47
114. FISMLAISDIRHALDWHTSV  0.979 ± 0.17
115. GKVRRIIWLSCKNG  1.05 ± 0.54
116. RMLFVHPVGYGCEAAVGSSW  1.09 ± 0.23
117. SYVIGGGSMGQARDRCLSNA  1.11 ± 0.23
118. PITLTRASALLCKYYAFWTF  1.14 ± 0.37
119. CRFKVQQMTMENLAQMLVKG  1.15 ± 0.68
120. NFTSFAYFELEDALWSWRRL  1.16 ± 0.35
121. RVDLVDSSICADANLLG  1.17 ± 0.26
122. RKCSLVAEWTGLLLNSFVHN  1.19 ± 0.45
123. ILAITRINA  1.19 ± 0.13
124. LTVTW  1.2 ± 0.21
125. GWSSSGVVIRVPGSFRLVGR  1.39 ± 0.45
126. YTRGCSFHIRVSSLCGQYNI  1.65 ± 0.18
127. SRIIMSFTSGLCDNHSKLKC  1.68 ± 0.19
128. LSQARVYLCYFEFSYFVVEP  1.83 ± 0.12
129. CMWGVDQPCLTTLTEAVLKP  1.96 ± 0.12
130. IFAVGTTTASKCVWKIVEQE  2.09 ± 0.11
131. AVALYVSDSQDHPGNRNVLV  2.45 ± 0.099
132. MGMLFMFVITKKSLVQDSLY  2.64 ± 0.19
133. IVRQIASFGRIRDRTRDDEW  3.05 ± 0.13
134. TGFSLVFSWFFLNG  3.68 ± 0.099
135. KLNLMCWDGLYLDMKIDSNL  3.94 ± 0.07
136. GTVTLV  3.99 ± 0.11
137. SRVIWHDSQLFVVFSSTAYK  4.04 ± 0.041
138. SKLIVWLTDLASSVSRMLLV  4.09 ± 0.071
139. NFHGSASNCDAIVYANFTMH  4.61 ± 0.086
140. EPDELPYLLKASLMSLGHGP  4.64 ± 0.073
141. TMCDSIVIEYGPCIFDSSSS  4.74 ± 0.056
142. HFITCFLDRHGALVCYCSES  4.76 ± 0.11
143. YAVVFHVPLLV  5.11 ± 0.079
144. YVPDGAQARLDASIFIVCSR  5.23 ± 0.055
145. IFFVSDVESNIGRWLRRCFP  5.465 ± 0.054
146. FNVFFAS  5.97 ± 0.055
147. MAHWSSSNSTVVLGCLAWML  6.17 ± 0.081
148. VKTRCVVHCMNNFPGCMIEL  6.887 ± 0.065
149. GHTPCPHNVVRTHVLSWHGL  7.021 ± 0.042
150. LFLSLTTQNWFNYNLPI  7.32 ± 0.026
151. HFWCLRCDTIHDSFNYSVVQ  7.373 ± 0.055
152. PVLFYSLYIVNVNTLYMSSG  7.857 ± 0.051
153. SGKTMEVIYNEGSCFCGFLT  8.09 ± 0.081
154. VVKFYWCIVQCCTWNGMKSH  8.363 ± 0.067

In the case of ETVLFYSV, the amyloid nucleation score is reported as “inactive”.
With FRMGY the amyloid nucleation score was “inactive”.
In the case of LKEDF, the amyloid nucleation score is reported as “inactive”.
In the case of YHLGSSLLLCI, the amyloid nucleation score is reported as “inactive”.
In the case of VAFGLMDQDIFSRRILTRSS, the amyloid nucleation score is reported as “inactive”.
For FFYWL, the amyloid nucleation score was “inactive”.
For PSMQVVKRVINFG, the amyloid nucleation score was “inactive”.
With ENKILMGAWEVFWTYSEHPW the amyloid nucleation score was “inactive”.
In the case of HDYVLFISECHKLLGAS, the amyloid nucleation score is reported as “inactive”.
In the case of YFLRYSS, the amyloid nucleation score is reported as “inactive”.
With VINGVHLSRVLYNPILEFIT the amyloid nucleation score was “inactive”.
In the case of TVLLWD, the amyloid nucleation score is reported as “inactive”.
For TLNLDFFELSMPGDFSDLVS, the amyloid nucleation score was “inactive”.
For VTLRTANGDKWKTPASNI, the amyloid nucleation score was “inactive”.
With PEPFS the amyloid nucleation score was “inactive”.
In the case of NSYTFLNT, the amyloid nucleation score is reported as “inactive”.
In the case of RRLAGSTAEKMYMF, the amyloid nucleation score is reported as “inactive”.
